Earlier results as cited in publication PMC4023866.

Molecular target: GAPDH (Homo sapiens) (UniProt P04406)

## NleB (from UniProt B7UI21)
  Kd: 36 µM
